Experimental data from US9061070B2, “Treating stroke and other diseases without inhibiting N-type calcium channels” (NoNO, Inc., priority 2007, dated 2015).

Target: T1, chemokine CXCR2 (IL-8Rb) (Homo sapiens, UniProt P25025)
T1 sequence (P25025 1-360): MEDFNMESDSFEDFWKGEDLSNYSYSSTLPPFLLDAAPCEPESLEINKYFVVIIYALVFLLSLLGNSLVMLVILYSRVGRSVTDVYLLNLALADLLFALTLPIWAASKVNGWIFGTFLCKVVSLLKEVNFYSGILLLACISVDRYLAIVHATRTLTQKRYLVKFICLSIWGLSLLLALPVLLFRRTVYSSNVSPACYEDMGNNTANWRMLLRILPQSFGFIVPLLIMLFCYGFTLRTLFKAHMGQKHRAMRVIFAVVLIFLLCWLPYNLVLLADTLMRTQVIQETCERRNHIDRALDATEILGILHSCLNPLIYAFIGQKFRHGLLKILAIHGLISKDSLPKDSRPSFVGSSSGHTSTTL
Test: Competitive radioligand binding screen, IL-8/IL-8RB
Conditions: 10 μM peptide

For “YGRKKRRQRRRKLSSIESDV [Tat-NR2B9c, reference compound]”, the “inhibition of IL-8/IL-8RB” value was 80%.
